Data published in paper PMC2992793 (Structure (London, England : 1993), 2010).
Changes are numbered by the printed parent chain. Names may count otherwise.

Columns and labels:
[1] = biological target: T1, Dvl2 Lys446Ala (construct not stated) (murine, UniProt Q60838 1-736, Lys446Ala)
T1 sequence (looked up): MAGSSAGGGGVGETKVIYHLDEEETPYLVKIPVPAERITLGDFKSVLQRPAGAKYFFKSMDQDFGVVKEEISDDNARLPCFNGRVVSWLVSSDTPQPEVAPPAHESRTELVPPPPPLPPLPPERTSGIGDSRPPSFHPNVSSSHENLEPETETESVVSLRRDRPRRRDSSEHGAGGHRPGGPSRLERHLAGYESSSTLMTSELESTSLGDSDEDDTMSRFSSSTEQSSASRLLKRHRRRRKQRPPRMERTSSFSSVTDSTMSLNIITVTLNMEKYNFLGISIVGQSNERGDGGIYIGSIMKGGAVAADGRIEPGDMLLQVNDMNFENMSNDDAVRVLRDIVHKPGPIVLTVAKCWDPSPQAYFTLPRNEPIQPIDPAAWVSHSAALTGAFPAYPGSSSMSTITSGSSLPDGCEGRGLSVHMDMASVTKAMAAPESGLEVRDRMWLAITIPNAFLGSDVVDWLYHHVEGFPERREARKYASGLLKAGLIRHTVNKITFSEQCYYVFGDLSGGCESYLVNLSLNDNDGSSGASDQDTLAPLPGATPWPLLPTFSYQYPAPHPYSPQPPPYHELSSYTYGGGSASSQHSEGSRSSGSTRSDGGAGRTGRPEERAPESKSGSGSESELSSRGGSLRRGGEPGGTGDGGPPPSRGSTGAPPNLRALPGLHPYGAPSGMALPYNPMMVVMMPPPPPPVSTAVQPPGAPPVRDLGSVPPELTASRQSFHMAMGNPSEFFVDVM

[2] = biological target: T2, Dvl2 Lys446Met (construct not stated) (murine, UniProt Q60838 1-736, Lys446Met)
T2 sequence (looked up): T1 sequence (looked up) with A446M

[3] = biological target: T3, His-tagged μ2C (μ2 170–435), wild type (rat, UniProt P84092 170-435); experiment: pull-down
T3 sequence (looked up): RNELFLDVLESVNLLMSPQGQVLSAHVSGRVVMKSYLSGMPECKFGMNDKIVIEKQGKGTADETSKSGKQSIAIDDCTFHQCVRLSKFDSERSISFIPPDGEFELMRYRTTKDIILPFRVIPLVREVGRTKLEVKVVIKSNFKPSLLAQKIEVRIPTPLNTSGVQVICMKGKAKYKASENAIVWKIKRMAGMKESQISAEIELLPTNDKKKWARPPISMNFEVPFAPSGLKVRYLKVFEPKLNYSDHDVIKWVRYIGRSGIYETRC

GST-μ2C K213A = biological target: T4, GST-μ2C K213A (rat, UniProt P84092 170-435, Lys213 to alanine); experiment: pull-down
T4 sequence (looked up): T3 sequence (looked up) with K44A

GST-μ2C K405A = biological target: T5, GST-μ2C K405A (rat, UniProt P84092 170-435, Lys405 to alanine); experiment: pull-down
T5 sequence (looked up): T3 sequence (looked up) with K236A

GST-μ2C E211A = biological target: T6, GST-μ2C E211A (rat, UniProt P84092 170-435, Glu211 to alanine); experiment: pull-down
T6 sequence (looked up): T3 sequence (looked up) with E42A

GST-μ2C F407A = biological target: T7, GST-μ2C F407A (rat, UniProt P84092 170-435, Phe407 to alanine); experiment: pull-down
T7 sequence (looked up): T3 sequence (looked up) with F238A

[4] = biological target: T8, GST-μ2C wild type (μ2 170–435) (rat, UniProt P84092 170-435); experiment: pull-down
T8 sequence (looked up): T3 sequence (looked up)

B1: μ2 (construct of the experiments not shown is not stated) (natural protein, rat, UniProt P84092 1-435, looked up)
chain: MIGGLFIYNHKGEVLISRVYRDDIGRNAVDAFRVNVIHARQQVRSPVTNIARTSFFHVKRSNIWLAAVTKQNVNAAMVFEFLYKMCDVMAAYFGKISEENIKNNFVLIYELLDEILDFGYPQNSETGALKTFITQQGIKSQHQTKEEQSQITSQVTGQIGWRREGIKYRRNELFLDVLESVNLLMSPQGQVLSAHVSGRVVMKSYLSGMPECKFGMNDKIVIEKQGKGTADETSKSGKQSIAIDDCTFHQCVRLSKFDSERSISFIPPDGEFELMRYRTTKDIILPFRVIPLVREVGRTKLEVKVVIKSNFKPSLLAQKIEVRIPTPLNTSGVQVICMKGKAKYKASENAIVWKIKRMAGMKESQISAEIELLPTNDKKKWARPPISMNFEVPFAPSGLKVRYLKVFEPKLNYSDHDVIKWVRYIGRSGIYETRC
B1 was tested, and the “fold decrease of μ2 affinity against wild-type Dvl2” value [1] was roughly 2 fold and the “fold decrease of μ2 affinity against wild-type Dvl2” value [2] was roughly 2 fold.

B2: GST-Dvl2 417–588, wild type (domain or fragment, murine, UniProt Q60838 417-588, looked up)
chain: LSVHMDMASVTKAMAAPESGLEVRDRMWLKITIPNAFLGSDVVDWLYHHVEGFPERREARKYASGLLKAGLIRHTVNKITFSEQCYYVFGDLSGGCESYLVNLSLNDNDGSSGASDQDTLAPLPGATPWPLLPTFSYQYPAPHPYSPQPPPYHELSSYTYGGGSASSQHSEG
B2: binds [3].

B3: GST-Dvl2 417–588 D441K (domain or fragment, murine, UniProt Q60838 417-588, looked up)
chain: B2 chain with D25K
B3: binds [3].

B4: GST-Dvl2 417–588 R489A (domain or fragment, murine, UniProt Q60838 417-588, looked up)
chain: B2 chain with R73A
B4: binds [3].

B5: GST-Dvl2 417–588 N451A (domain or fragment, murine, UniProt Q60838 417-588, looked up)
chain: B2 chain with N35A
B5: binds [3].

B6: His-tagged Dvl2 407–588 (domain or fragment, murine, UniProt Q60838 407-588, looked up)
chain: SLPDGCEGRGLSVHMDMASVTKAMAAPESGLEVRDRMWLKITIPNAFLGSDVVDWLYHHVEGFPERREARKYASGLLKAGLIRHTVNKITFSEQCYYVFGDLSGGCESYLVNLSLNDNDGSSGASDQDTLAPLPGATPWPLLPTFSYQYPAPHPYSPQPPPYHELSSYTYGGGSASSQHSEG
B6: binds (GST-μ2C K213A); binds (GST-μ2C K405A); binds (GST-μ2C E211A). B6: binds (GST-μ2C F407A); binds [4].
